According to the RNAGym collection of RNA variant scans (doi:10.1101/gr.219683.116):

B1: mRNA-splicing (parent)
chain: AGUUGCUGCUGGGAGCUCCAGCACAGUGAAAUGGACAGAAGGGCAGAGCAA

Variants of: B1
Assay: exon inclusion enrichment index; higher = more inclusion; WT1 exon 5 minigene, HEK293

Variant	exon inclusion enrichment index
G5A C6G U7G G8A C9U	0.0075
G5A U7C G8A U10C A31U U32A	0.229
G5C C6U G8C C9G U10A	3.12
C6A U7A C9A U10A A14U G15A	0.217
G5A U7C G8A U10C A37G G38A	2.19
G5A C6G U7G C9A A14G G15U	0.00301
G5A C6U U7A G8U	0.171
U4A G5C C6U G8C C9U U10C	1.68
C6A U7A C9A U10A C24G	0.763
U10C G11C	1.66
C6A U7C C9A U10C A29G A30C	2.23
G5C C6U G8C C9U U10C C18A C19U	0.0905
G5A C6U U7A G8U C9A A20C G21A	0.0479
G5A C6U U7A G8U C9A G33C	0.108
C6A U7A C9A U10A C24G A25C	2.12
C6A U7C C9A U10C A30U	2.51
G5A C6G U7G C9A U27G G28C	0.00084
G5A C6G U7G C9A A37U	0.00604
G5C C6G U7C U10C C44A A45G	5.42
G5C C6A U7C G8A U10A A37C G38C	0.176
G5A C6U U7A G8U C9A G28C A29C	0.0748

Variant	exon inclusion enrichment index
G5A C6G U7G C9A A40U	0.00193
G38C A39G	0.21
G38C A39C	0.158
G5A U7C G8A U10C G41C G42A	2.13
C6A U7A C9A U10A G13A A14U	1.82
G5C C6G U7C U10C U27C G28C	4.03
G5C C6A U7C G8A U10A C18A C19U	0.00173
G46A A47G	0.0433
G5U G8U C9U A30G	0.109
G5A C6G U7G C9A A31C U32G	0.00133
G5C C6A U7C G8A U10A U27A G28C	0.152
G5U G8U C9U U17C C18G	0.151
G5C C6A U7C G8A U10A A14U G15C	0.0301
U3C U4C G5A C6U U7A G8U C9A	0.481
G5C C6G U7C G8C C9G U10C	3.59
G5A C6G U7G C9A A14C G15U	0.000655
G5A C6A U7C C9A U10C	2.47
G5C C6U G8C C9U U10C C44A	3.29
G5U G8U C9U G11A G12U	0.00501
G5U G8U C9U C36A	0.0987
G5A C6U U7A G8U C9A A39G	0.00842

Variant	exon inclusion enrichment index
A35U	0.0139
G2C G5C C6U G8C C9U U10C	1.41
G5U G8U C9U C24G A25U	0.208
G5A U7C G8A U10C C44U	0.581
A14U G15U	0.0223
G5A U7C G8A U10C U17G C18U	1.66
G5A C6A U7G G8A U10C	1.08
C6A U7A C9A U10A G12U	0.96
G5A C6U U7A G8U C9A A45C	0.106
G5A C6U U7A G8U C9A C18U C19U	0.00085
G5U G8U C9U G46A A47U	0.164
G5U G8U C9U A40U G41A	0.00332
G46U A47C	0.692
G5A C6U U7A G8U C9A U27C G28C	0.1
C6A U7C C9A U10C G43A	4.63
G5C C6G U7C U10C G43A	5.08
G28C A29C	0.118
G5U G8U C9U C19A A20C	0.0372
G5U G8U C9U C19A A20U	0.0164
G5U G8U C9U C19A A20G	0.00554
G5A U7C G8A U10C G34U A35C	0.726

Variant	exon inclusion enrichment index
G5C C6U G8C C9U U10C A20C G21U	0.926
C6A U7C C9A U10C G38C A39C	3
G5A U7C G8A U10C C16U U17A	1.74
G5A U7C G8A U10C C16U U17G	0.815
G5A U7C G8A U10C C16U U17C	1.33
G5C C6A U7C G8A U10A A31C	0.155
G5A U7C G8A U10C A20G G21A	2.82
G5A C6U U7A G8U C9A A45C G46C	0.0306
G5A C6U U7A G8U C9A A45U G46C	0.0684
G48U	0.288
G5C C6U G8C C9U	1.16
G5C C6U G8C C9U U10C G34C A35C	0.141
G5A C6U U7A G8U C9A A35G C36A	0.0117
C6A U7C C9A U10C G12U G13A	1.25
G5C C6A U7C G8A U10A A14G G15A	0.119
G5A C6U U7A G8U C9A A20G	0.102
G5C C6G U7C U10C A29U	1.68
G5C C6G U7C U10C A29G	3.72
G5C C6G U7C U10C A29G A30U	1.79
G5U C6G U7C C9A U10C	2.41
